Target: human citrullinated fibrinogen (hCitFbg) (human) (UniProt P02671)
Test: ELISA; Fbg or citrullinated Fbg coated (0.8 μg/mL in PBS, overnight 4 °C); recombinant SAA 10–2000 ng/mL added, 1 h at 37 °C; detected with anti-hSAA1; apparent Kd

apparent Kd relative to hSAA1-hFbg: 0.5 fold
B1: recombinant human serum amyloid A1 (hSAA1) (natural protein)
chain: RSFFSFLGEAFDGARDMWRAYSDMREANYIGSDKYFHARGNYDAAKRGPGGAWAAEVITDARENIQRFFGHGAEDSLADQAANEWGRSGKDPNHFRPAGLPEKY

Source: PMC10449786
